From patent US7871610B2, “Antibodies to Tie1 ectodomain” (Dyax Corp., priority 2003, dated 2011)
Entries after “also recorded” stand apart in the source; their conditions may differ.

Assays:
Tie1 [1] = biological target: T1, Tie1 (Homo sapiens, UniProt P35590); test: Tie1 phosphorylation assay in HDMVECs; assay type: cell-based
Procedure: COS1 cells were transfected with pcDNA3-Tie1-V5. After 24 h of transfection, the cells were serum starved for 8 h and then treated with E3 IgG. For the Tie1 phosphorylation assay, HDMVECs were cultured on 10 cm dishes to near confluence, starved (8-16 h) in serum free medium and stimulated as indicated. After the stimulations, the cells were lysed in lysis buffer (RIPA-DOC: 50 mM Tris-HCl pH 8.0, 150 mM NaCl, 1% Triton-X-100, 0.1% SDS, 0.5% DOC, 10 mM EDTA, supplemented with aprotinin, leupeptin, PMSF and sodium vanadate). Clarified lysates from transfected COS1 cells or HDMVECs were immunoprecipitated with anti-V5 or anti-Tie1 B9, respectively. Proteins were separated by SDS-PAGE, transferred to nitrocellulose and immunoblotted using the anti-phosphotyrosine and anti-Tie1 (R&D systems) antibodies.
To test if the E3 IgG binding to the extracellular region of Tie1 induces autophosphorylation of Tie1, the Tie1 receptor phosphorylation level in response to E3 IgG treatment was studied in transiently transfected COS1 cells and human primary endothelial cells. COS1 cells were transfected with an expression vector containing a V5-tagged full length Tie1 cDNA, and, after serum starvation, the cells were treated with E3 IgG (200 ng/ml). Cell lysates were extracted at several time points and Tie1 was immunoprecipitated with anti-V5 followed by western blotting using anti-phosphotyrosine and anti-Tie1 antibodies. […] To determine if E3 IgG induces Tie1 phosphorylation in primary endothelial cells, HDMVEC cells were serum starved and stimulated with several concentrations of E3 for 60 min. […] Also higher concentrations of E3 (500-1000 ng/ml) induced Tie1 phosphorylation but the response was more rapid and was most prominent after 5 min of stimulation.
To study the kinetics of E3 IgG induced Tie1 activation, cells were stimulated with E3 IgG (200 ng/ml) and receptor phosphorylation was studied at various time points. Tie1 phosphorylation was highest 15-30 min after E3 IgG treatment but phosphorylation persisted for up to 1 h.

Tie-1 = test: Immunohistochemistry of mouse SW480 xenograft tumor sections; conditions: biotinylated E3 IgG1 10 μg/ml, paraffin sections
Procedure: We determined if antibody E3 binds to mouse endothelial cells in mouse xenographs. Immunohistochemistry was performed with biotinylated E3 IgG1 (a,z allotype) antibody and control antibodies anti-CD31 (endothelial cell specific marker) and anti-PCNA (proliferating cell nuclear antigen). Formalin-fixed tumor tissues from a mouse-xenograph containing SW480 cells (ATCC) were tested for the binding pattern of the human anti-Tie1 antibody E3. 5 μm sections of paraffin embedded tissues were deparaffinized, rehydrated and pretreated with warm the citrate buffer (0.01 M sodium citrate, pH6 at 95° C.) for 45 min. The slides were cooled down in fresh citrate buffer for 20 min and rinsed with distilled water. The slides were hydrogen peroxide treated, (0.3% H2O2 in PBS), and preincubated with PBS, 5% FCS, 5% heat inactivated human serum (HS) for 1 hour. Between antibody incubations slides were washed 3 times 5 minutes in PBS. Biotinylated antibodies E3 and A2-SV were diluted to a concentration of 10 μg/ml in PBS, 10% HS and incubated for 1 hour at RT. Slides were then incubated with an avidin-HRP (Dako) for 30 minutes at room temperature. Staining was detected by AEC (Vector Laboratories, Burlingame) and H2O2. The peroxidase reaction was stopped with water and slides were counter-stained with haematoxylin. The tissues were evaluated for their binding reactivity.

Tie1 [2] = biological target: T1, Tie1; test: Immunoprecipitation from HUVEC lysates; assay type: binding; set-up: endogenous in cells; host or cells: HUVEC; conditions: 5 μg/ml antibody
Procedure: The conclusion from this study was that platelets represent a large pool of Tie-1 immunoreactivity which could present a problem for development of Tie1 as a therapeutic target. […] Both, activated and inactivated platelets were tested. Anti-Tie-1 antibodies B2, D11, E3, the goat polyclonal AF619 (R&D) and negative control antibodies anti-FITC and anti-Streptavidin were used. HUVECS were retrieved from culture dishes by trypsinization and platelets were prepared with the platelet GelSep kit (Biocytex, Marseille, France) kit according to the guidelines of the manufacturer. Per immunoprecipitation experiment 3-5e10^6 and 3e10^8 cells platelets were used for each antibody tested. Platelets and cells were washed with PBS and spun down at 1400 rpm for 4 minutes and supernatant was removed. Then cells were lysed in 1 ml lysis buffer containing 50 mM Tris HCL pH 7.5, 150 mM NaCl, 0.5% Deoxycholic acid (DOC) and 0.5% NP-40 for 5 minutes. The lysed cells were spin down for 10 minutes at 14.000 rpm and 5 μg/ml antibody was added to the supernatant and incubated at 4° C. on a rotator. 100 μl/sample protein A beads (Uppsala, Sweden) were washed 3 times with lysis buffer (centrifugation speed: 1.5 seconds, 2000 rpm) then cell lysates incubated with antibody were added for 30 minutes 4° C. […] In Western blotting Tie-1 was detected with the polyclonal goat anti-Tie-1 antibody.

human platelets = test: Flow cytometry binding to human platelets; conditions: non-activated human platelets, 2 and 10 μg/ml
Procedure: To avoid platelet activation, human platelets were isolated from plasma of healthy donors using the platelet GelSep kit (Biocytex, Marseille, France) kit according to the guidelines of the manufacturer. Platelets were activated by the addition of thrombin to a final concentration of 0.8 U/ml. To distinguish activated from non-activated platelets double staining was performed with Tie-1 antibodies/control antibodies and antibody CD42 (total platelets) or CD62 (activated platelets).
After preparation, platelets were resuspended in buffer 2 of the GelSep kit, 10% heat inactivated human serum (incubation buffer) and incubated for 1 hour. […] Platelets were spun down by centrifugation for 10 min at 611 g. Between incubations platelets were washed twice with Buffer 1 of the GelSep kit. Then, Strepatvidin-R-phycoerythrin together with anti-CD42-PercP or anti-CD62-PercP were incubated for 30 minutes at room temperature in incubation buffer After the last incubation and washing detection of bound antibodies was performed by means of flow cytometry on a FACSscan and Epics Altra (Becton Dickinson, Oxnard, Coulter) and results analyzed. Cells were gated on SSC and anti-CD42-PercP for the total platelets in case non-activated platelets were used and on SSC and anti-CD62-PercP for the activated platelets.

T1 sequence (P35590 22-1138): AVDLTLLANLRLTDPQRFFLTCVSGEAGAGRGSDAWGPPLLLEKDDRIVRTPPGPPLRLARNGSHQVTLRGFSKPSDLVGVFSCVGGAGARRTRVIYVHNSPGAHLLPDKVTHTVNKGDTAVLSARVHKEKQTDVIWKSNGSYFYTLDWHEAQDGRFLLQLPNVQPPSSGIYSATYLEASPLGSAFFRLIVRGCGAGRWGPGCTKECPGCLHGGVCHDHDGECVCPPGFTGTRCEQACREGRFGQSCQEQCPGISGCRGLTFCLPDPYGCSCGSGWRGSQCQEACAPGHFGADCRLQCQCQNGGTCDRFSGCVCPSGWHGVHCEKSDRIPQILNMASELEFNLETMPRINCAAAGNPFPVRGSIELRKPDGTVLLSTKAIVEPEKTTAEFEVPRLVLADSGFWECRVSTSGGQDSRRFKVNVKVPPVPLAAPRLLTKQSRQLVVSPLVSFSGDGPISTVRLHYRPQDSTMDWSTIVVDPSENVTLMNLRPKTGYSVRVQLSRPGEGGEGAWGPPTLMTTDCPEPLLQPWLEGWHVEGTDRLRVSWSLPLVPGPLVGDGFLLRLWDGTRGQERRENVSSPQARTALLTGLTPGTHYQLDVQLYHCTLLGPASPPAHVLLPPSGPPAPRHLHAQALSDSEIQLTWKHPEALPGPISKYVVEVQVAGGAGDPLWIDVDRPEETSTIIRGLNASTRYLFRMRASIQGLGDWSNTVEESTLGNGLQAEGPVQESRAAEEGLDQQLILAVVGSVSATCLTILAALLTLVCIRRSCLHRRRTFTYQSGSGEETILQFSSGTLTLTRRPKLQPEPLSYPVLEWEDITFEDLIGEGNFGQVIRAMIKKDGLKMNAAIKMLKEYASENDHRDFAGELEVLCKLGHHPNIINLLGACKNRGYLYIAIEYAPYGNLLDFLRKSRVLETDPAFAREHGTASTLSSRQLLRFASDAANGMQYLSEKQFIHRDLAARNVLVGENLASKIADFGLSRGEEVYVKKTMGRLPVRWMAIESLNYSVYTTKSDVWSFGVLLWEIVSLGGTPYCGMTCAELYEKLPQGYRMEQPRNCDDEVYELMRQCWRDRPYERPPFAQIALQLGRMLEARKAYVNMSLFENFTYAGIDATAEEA

B1: E3: human anti-Tie1 antibody from Fab phage library; HC SEQ ID NO:114, LC SEQ ID NO:116 (antibody, V domains shown)
VH: EVQLLESGGGLVQPGGSLRLSCAASGFTFSMYGMVWVRQAPGKGLEWVSVISPSGGNTGYADSVKGRFTISRDNSKNTLYLQVNSLRAEDTAVYYCARAPRGYSYGYYYWGQGTLVTVSSASTKGPSVFPLAPSSKSTSGG
VL: DIQMTQSPLSLSASVGDRVTITCRASQGIGHYLAWYQQKPGKVPKLLIYTASTLQSGVPSRFSGSGSGTDFTLTINSLQPEDVATYYCQQFNSYPHTFGQGTRLDIK
modifications: Synthetically generated peptide
In the case of B1, the “persistence of Tie1 phosphorylation” value (Tie1 [1]; E3 IgG 200 ng/ml) is reported as “up to 1 h”, the “time of highest Tie1 phosphorylation” value (Tie1 [1]; E3 IgG 200 ng/ml) is reported as 15 to 30 min and the “time of most prominent Tie1 phosphorylation” value (Tie1 [1]; HDMVEC, E3 500-1000 ng/ml) is reported as 5 min. For the same molecule, the “concentration showing Tie1 receptor phosphorylation” value (Tie1 [1]; HDMVEC, serum starved, stimulated 60 min) was 50 to 200 ng/mL, the “higher concentrations inducing Tie1 phosphorylation” value (Tie1 [1]; HDMVEC, response more rapid) was 500 to 1000 ng/mL and the “staining pattern in mouse xenograft tumor tissue” value (Tie-1) was “consistent with staining of mouse endothelial cell Tie-1”. For the same molecule, the “immunoprecipitation of Tie-1 from HUVEC” value (Tie1 [2]) was “able to immune precipitate Tie-1 in HUVEC” and the “binding to total platelets (CD42)” value (human platelets) was “Only a background number; also recorded: no significant binding to total platelets”.
